Where only a bound is given, the exact number is not on record here.

What all share (test): cell-based or functional assay
For assay [1], the target named is Human T cell receptor on human primary T cells (human) (UniProt P01848).
Assay [2] concerns the target Cynomolgus T cell receptor on cynomolgus primary T cells (cynomolgus monkey).
For assay [3], the target named is human GPC3 on cells (human) (UniProt P51654).

Chain of Human T cell receptor on human primary T cells (human) (P01848 whole entry, chain 1 of 2): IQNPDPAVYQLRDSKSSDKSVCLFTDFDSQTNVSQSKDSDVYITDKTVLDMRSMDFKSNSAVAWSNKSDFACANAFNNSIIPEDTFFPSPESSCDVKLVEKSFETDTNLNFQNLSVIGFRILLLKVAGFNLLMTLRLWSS
Chain of Human T cell receptor on human primary T cells (human) (P01850 whole entry, chain 2 of 2, further chain): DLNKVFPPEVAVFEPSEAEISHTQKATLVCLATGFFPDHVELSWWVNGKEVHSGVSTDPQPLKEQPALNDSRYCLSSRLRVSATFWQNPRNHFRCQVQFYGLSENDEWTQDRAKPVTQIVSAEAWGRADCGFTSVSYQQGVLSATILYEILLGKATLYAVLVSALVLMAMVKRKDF

B1: T017000139 (bispecific antibody)
chain: DVQLVESGGGLVQPGGSLRLSCVASGDVHKINFLGWYRQAPGKEREKVAHISIGDQTDYADSAKGRFTISRDESKNMVYLQMNSLKPEDTAVYFCRAFSRIYPYDYWGQGTLVTVSSGGGGSGGGGSGGGGSGGGGSGGGGSGGGGSGGGGSEVQLVESGGGLVQAGGPLRLSCAASGRTFSSYVMGWFRQAPGKEREFVAAIYWSNGKTQYTDSVKGRFTISGDNAKNTVYLQMNSLNPEDTAVYYCVADKDETGFRTLPIAYDYWGQGTLVTVSSGGGGSGGGGSGGGGSGGGGSGGGGSGGGGSGGGGSEVQLVESGGGLVQAGGSLRLSCAASGITSKINDMGWYRQTPGNYREWVASITATGTTNYRDSVKGRFTISRDNAKSTVYLQMNSLKPEDTTVYYCNTFPPISNFWGQGTLVTVSSA
For B1, in assay [1], the % lysis, KG-1a, Human T cell mediated killing came to 51%; the % lysis, MOLM-13, Human T cell mediated killing amounted to 25%; the Average EC50 (M), KG-1a, Human T cell mediated killing was 7.8e-11 M; the Average EC50 (M), MOLM-13, Human T cell mediated killing worked out at 2.5e-11 M. In assay [1], this molecule displayed an IC50 (M), xCELLigence cell killing, Human T cell mediated killing, E:T 15:1 of 4.7e-11 M. Besides, in assay [2], the % lysis, KG-1a, Cynomolgus T cell mediated killing was determined as 26%; the % lysis, MOLM-13, Cynomolgus T cell mediated killing amounted to 40%; the Average EC50 (M), KG-1a, Cynomolgus T cell mediated killing amounted to 1.2e-11 M; the Average EC50 (M), MOLM-13, Cynomolgus T cell mediated killing was determined as 7.2e-11 M.

B2: T017000670 (bispecific antibody)
chain: DVQLVESGGGVVQPGGSLRLSCVASGYVHKINFYGWYRQAPGKEREKVAHISIGDQTDYADSAKGRFTISRDESKNTVYLQMNSLRPEDTALYYCRALSRIWPYDYWGQGTLVTVSSGGGGSGGGGSGGGGSGGGGSGGGGSGGGGSGGGGSEVQLVESGGGLVQAGGPLRLSCAASGRTFSSYVMGWFRQAPGKEREFVAAIYWSNGKTQYTDSVKGRFTISGDNAKNTVYLQMNSLNPEDTAVYYCVADKDETGFRTLPIAYDYWGQGTLVTVSSGGGGSGGGGSGGGGSGGGGSGGGGSGGGGSGGGGSEVQLVESGGGLVQAGGSLRLSCAASGITSKINDMGWYRQTPGNYREWVASITATGTTNYRDSVKGRFTISRDNAKSTVYLQMNSLKPEDTTVYYCNTFPPISNFWGQGTLVTVSSA
In assay [1], B2 registered a % lysis, KG-1a, Human T cell mediated killing of 52%; a % lysis, MOLM-13, Human T cell mediated killing of 26%; an Average EC50 (M), KG-1a, Human T cell mediated killing of 7.4e-11 M; an Average EC50 (M), MOLM-13, Human T cell mediated killing of 2.5e-11 M. This molecule had an IC50 (M), xCELLigence cell killing, Human T cell mediated killing, E:T 15:1 in assay [1] of 9.4e-11 M. For the same molecule, in assay [2], the % lysis, KG-1a, Cynomolgus T cell mediated killing turned out to be 30%; the % lysis, MOLM-13, Cynomolgus T cell mediated killing stood at 34%; the Average EC50 (M), KG-1a, Cynomolgus T cell mediated killing was 8.1e-12 M; the Average EC50 (M), MOLM-13, Cynomolgus T cell mediated killing was 2e-11 M.

B3: A022600427 (protein)
chain: DVQLVESGGGVVQPGGSLRLSCVASGYVHKINFYGWYRQAPGKEREKVAHISIGDQTDYADSAKGRFTISRDESKNTVYLQMNSLRPEDTAAYYCRALSRIWPYDYWGQGTLVTVSSGGGGSEVQLVESGGGVVQPGGSLRLSCAASGFTFSSFAMTWVRRPPGKGLEWVATITNAGVTSYADSVKGRFTISRDNAKNTLYLQMNSLRPEDTALYICANARRTGPRAPTDIGSYRGQGTLVTVSSGGGGSGGGSEVQLVESGGGVVQPGGSLRLSCAASGSIFRSVFSSSTMEWYRQAPGKKRELVARIAPGEGTYYGALYADSVKGRFTISRDNAKNTVYLQMNSLRPEDTALYYCASGVAWGQGTLVTVSSGGGGSGGGSEVQLVESGGGVVQPGGSLRLSCAASGFTFRSFGMSWVRQAPGKGPEWVSSISGSGSDTLYADSVKGRFTISRDNSKNTLYLQMNSLRPEDTALYYCTIGGSLSRSSQGTLVTVSSA
In the case of B3, in assay [3], the IC50 (M) BxPC-3, xCELLigence human TDC assay, E:T 15:1, 60 h was greater than 1e-07 M; the IC50 (M) HepG2, xCELLigence human TDC assay, E:T 15:1, 60 h came to 1.03e-10 M; the IC50 (M) Huh-7, xCELLigence human TDC assay, E:T 15:1, 60 h came out at 1.37e-10 M; the IC50 (M) NCI-H23, xCELLigence human TDC assay, E:T 15:1, 60 h was greater than 1e-07 M. This molecule also gave an IC50 (M) NCI-H661, xCELLigence human TDC assay, E:T 15:1, 60 h in assay [3] of 1e-10 M.

B4: T017000671 (bispecific antibody)
chain: DVQLVESGGGLVQAGGSLRLSCAASGITSKINDMGWYRQTPGNYREWVASITATGTTNYRDSVKGRFTISRDNAKSTVYLQMNSLKPEDTTVYYCNTFPPISNFWGQGTLVTVSSGGGGSGGGGSGGGGSGGGGSGGGGSGGGGSGGGGSEVQLVESGGGVVQPGGSLRLSCVASGYVHKINFYGWYRQAPGKEREKVAHISIGDQTDYADSAKGRFTISRDESKNTVYLQMNSLRPEDTALYYCRALSRIWPYDYWGQGTLVTVSSGGGGSGGGGSGGGGSGGGGSGGGGSGGGGSGGGGSEVQLVESGGGLVQAGGPLRLSCAASGRTFSSYVMGWFRQAPGKEREFVAAIYWSNGKTQYTDSVKGRFTISGDNAKNTVYLQMNSLNPEDTAVYYCVADKDETGFRTLPIAYDYWGQGTLVTVSSA
Consider B4, for which, in assay [1], the % lysis, KG-1a, Human T cell mediated killing was found to be 21%; the % lysis, MOLM-13, Human T cell mediated killing was determined as 14%; the Average EC50 (M), KG-1a, Human T cell mediated killing was found to be 1.5e-10 M; the Average EC50 (M), MOLM-13, Human T cell mediated killing was found to be 1.5e-10 M. In assay [2], the % lysis, MOLM-13, Cynomolgus T cell mediated killing came to 46% and the Average EC50 (M), MOLM-13, Cynomolgus T cell mediated killing came out at 2.1e-11 M.

B5: A022600412 (protein)
chain: DVQLVESGGGVVQPGGSLRLSCVASGYVHKINFYGWYRQAPGKEREKVAHISIGDQTDYADSAKGRFTISRDESKNTVYLQMNSLRPEDTAAYYCRALSRIWPYDYWGQGTLVTVSSGGGGSEVQLVESGGGVVQPGGSLRLSCAASGFTFSSFAMTWVRRPPGKGLEWVATITNAGVTSYADSVKGRFTISRDNAKNTLYLQMNSLRPEDTALYICANARRTGPRAPTDIGSYRGQGTLVTVSSGGGGSGGGGSGGGGSGGGGSEVQLVESGGGVVQPGGSLRLSCAASGFTFRSFGMSWVRQAPGKGPEWVSSISGSGSDTLYADSVKGRFTISRDNSKNTLYLQMNSLRPEDTALYYCTIGGSLSRSSQGTLVTVSSA
With B5, in assay [3], the IC50 (M) BxPC-3, xCELLigence human TDC assay, E:T 15:1, 60 h was greater than 1e-07 M; the IC50 (M) HepG2, xCELLigence human TDC assay, E:T 15:1, 60 h was 3.82e-10 M; the IC50 (M) Huh-7, xCELLigence human TDC assay, E:T 15:1, 60 h turned out to be 1.53e-09 M; the IC50 (M) NCI-H661, xCELLigence human TDC assay, E:T 15:1, 60 h is 6.18e-10 M.

B6: A022600425 (protein)
chain: DVQLVESGGGVVQPGGSLRLSCVASGYVHKINFYGWYRQAPGKEREKVAHISIGDQTDYADSAKGRFTISRDESKNTVYLQMNSLRPEDTAAYYCRALSRIWPYDYWGQGTLVTVSSGGGGSEVQLVESGGGVVQPGGSLRLSCAASGSIFRSVFSSSTMEWYRQAPGKKRELVARIAPGEGTYYGALYADSVKGRFTISRDNAKNTVYLQMNSLRPEDTALYYCASGVAWGQGTLVTVSSGGGGSGGGGSGGGGSGGGGSEVQLVESGGGVVQPGGSLRLSCAASGFTFSSFAMTWVRRPPGKGLEWVATITNAGVTSYADSVKGRFTISRDNAKNTLYLQMNSLRPEDTALYICANARRTGPRAPTDIGSYRGQGTLVTVSSGGGGSGGGSEVQLVESGGGVVQPGGSLRLSCAASGFTFRSFGMSWVRQAPGKGPEWVSSISGSGSDTLYADSVKGRFTISRDNSKNTLYLQMNSLRPEDTALYYCTIGGSLSRSSQGTLVTVSSA
In assay [3], B6 displayed an IC50 (M) BxPC-3, xCELLigence human TDC assay, E:T 15:1, 60 h greater than 1e-07 M; an IC50 (M) HepG2, xCELLigence human TDC assay, E:T 15:1, 60 h of 1.11e-10 M; an IC50 (M) Huh-7, xCELLigence human TDC assay, E:T 15:1, 60 h of 1.58e-10 M; an IC50 (M) NCI-H23, xCELLigence human TDC assay, E:T 15:1, 60 h greater than 1e-07 M. In addition, the IC50 (M) NCI-H661, xCELLigence human TDC assay, E:T 15:1, 60 h in assay [3] is 2.59e-10 M.

B7: A022600426 (protein)
chain: DVQLVESGGGVVQPGGSLRLSCVASGYVHKINFYGWYRQAPGKEREKVAHISIGDQTDYADSAKGRFTISRDESKNTVYLQMNSLRPEDTAAYYCRALSRIWPYDYWGQGTLVTVSSGGGGSEVQLVESGGGVVQPGGSLRLSCAASGSIFRSVFSSSTMEWYRQAPGKKRELVARIAPGEGTYYGALYADSVKGRFTISRDNAKNTVYLQMNSLRPEDTALYYCASGVAWGQGTLVTVSSGGGGSGGGGSGGGGSGGGGSEVQLVESGGGVVQPGGSLRLSCAASGFTFSSFAMTWVRRPPGKGLEWVATITNKGVTSYADSVKGRFTISRDNAKNTLYLQMNSLRPEDTALYICANARRTGPRAPTDIGSYRGQGTLVTVSSGGGGSGGGSEVQLVESGGGVVQPGGSLRLSCAASGFTFRSFGMSWVRQAPGKGPEWVSSISGSGSDTLYADSVKGRFTISRDNSKNTLYLQMNSLRPEDTALYYCTIGGSLSRSSQGTLVTVSSA
For the molecule B7, in assay [3], the IC50 (M) BxPC-3, xCELLigence human TDC assay, E:T 15:1, 60 h was greater than 1e-07 M; the IC50 (M) HepG2, xCELLigence human TDC assay, E:T 15:1, 60 h came out at 1.25e-10 M; the IC50 (M) Huh-7, xCELLigence human TDC assay, E:T 15:1, 60 h is 1.09e-10 M; the IC50 (M) NCI-H23, xCELLigence human TDC assay, E:T 15:1, 60 h was greater than 1e-07 M. This molecule showed an IC50 (M) NCI-H661, xCELLigence human TDC assay, E:T 15:1, 60 h in assay [3] of 2.64e-10 M.

B8: T017000675 (bispecific antibody)
chain: DVQLVESGGGLVQAGGPLRLSCAASGRTFSSYVMGWFRQAPGKEREFVAAIYWSNGKTQYTDSVKGRFTISGDNAKNTVYLQMNSLNPEDTAVYYCVADKDETGFRTLPIAYDYWGQGTLVTVSSGGGGSGGGGSGGGGSGGGGSGGGGSGGGGSGGGGSEVQLVESGGGLVQAGGSLRLSCAASGITSKINDMGWYRQTPGNYREWVASITATGTTNYRDSVKGRFTISRDNAKSTVYLQMNSLKPEDTTVYYCNTFPPISNFWGQGTLVTVSSGGGGSGGGGSGGGGSGGGGSGGGGSGGGGSGGGGSEVQLVESGGGVVQPGGSLRLSCVASGYVHKINFYGWYRQAPGKEREKVAHISIGDQTDYADSAKGRFTISRDESKNTVYLQMNSLRPEDTALYYCRALSRIWPYDYWGQGTLVTVSSA
In assay [1], B8 displayed a % lysis, KG-1a, Human T cell mediated killing of 46%; a % lysis, MOLM-13, Human T cell mediated killing of 23%; an Average EC50 (M), KG-1a, Human T cell mediated killing of 9.2e-11 M; an Average EC50 (M), MOLM-13, Human T cell mediated killing of 3.4e-11 M. The molecule further had an IC50 (M), xCELLigence cell killing, Human T cell mediated killing, E:T 15:1 in assay [1] of 5e-11 M. For the same molecule, in assay [2], the % lysis, KG-1a, Cynomolgus T cell mediated killing was 26%; the % lysis, MOLM-13, Cynomolgus T cell mediated killing is 31%; the Average EC50 (M), KG-1a, Cynomolgus T cell mediated killing came out at 2.6e-11 M; the Average EC50 (M), MOLM-13, Cynomolgus T cell mediated killing amounted to 6.9e-11 M.
